Assay results reported in the DeepSol protein solubility set.

Assay: soluble on expression in E. coli; label from the status in PepcDB or PDB records

Row | Sequence | soluble on expression in E. coli
1 | MGSDKIHHHHHHMTTVLEKFEKLKTEHAPGQEVRQKTPAFEELLIGEKLEGRTVDFSHGDVDAFLPTPGAFEEFSDGVHSGGKQAYTVYRGLADLREILSVRLTSFTGAPVNAADNLIITPGTQGALFLSVAATVAAGDKVAIVQPDYFANRKLVEFFEAEMLPVQLDYLGTDKAAGLDLNQLEAAFRDGARVFVFSNPNNPTGAVYSTEEIDAIAALADRYGAMVIVDQLYSRLLYEGTEYQHLRAVGGTGRDNVITIMGPSKTESLSGYRLGVAFGPSSVIERMERLQAIVSLRAAGYNQAVLQTWFSEPDGWMSERIKLHQAIRDDLLTRFRARADVAVRTPQAGSYMFAKLPRLRVSPIDFVKILRHQATVIVTPGSEFSPHTASSIRLNFSQNHAAATGAVERLVTLIERYREARP | not soluble
2 | MSLKILLKQAMVYPITSQKFQGDVLVIGEKIAEVKPFIQPTQDMTVIDARALHLLPGFIDVHTHLGLYDEGTGWAGNDANETSEVSTPHIRSLDGIHPLDIAFQDAVQNGITTVHVMPGSQNIIGGTTCVIKTAGTCIDHMIIQEPAGLKIAFGENPKKVHSNGTKESITRMGIMGLLRESFYEAQHYGHEADFRMLPILKALRREIPVRIHAHRADDISSALRFATEFNLDLRIEHCTEGHFIVEELSKHNLKVSVGPTLTRRSKIELKNKTWDTYHILSKSGVEVSITTDHPYTPIQYLNLCAAVAVREGLDEKTALEGITIFPARNLRLEDRIGSIEVGKDADLVLWTHHPFHYLAKPVLTMIDGKIIYKKNKKNEGHHHHHH | not soluble
3 | MPRLTDDDKKLLLMLAREAIVTYVREGITPATELSVPSLCEHYGCFVCIKKGGELRGCIGNFTSSQPLYQLVREMAVSAATRDPRFYPMTSKDITDFSLEISVLSPLEKISSPEQITVGTHGIYIEKNFFRGVLLPQVATEYGWDRDTFLMQTCVKAGLKPDDWRDGADIYIFSAEVFSLEHHHHHH | not soluble
4 | MSLIDILVVDDDVAVCAALRLVLKRAGYNPVIANSPDEALSIMRNPDGGCKPAVILMDMNFSLSTSGREGLELLEKMQIFTSCPVILMTAWASIPLAVEGMRLGAFDFIGKPWDNDRLLRTIDTALHLAAPSAVANPSEQSDRDTARQPKATVQENDPCAHIIGRSDAICKIKERIRRIAPTHASVLITGESGTGKELIAEALHRGSKRASAPFVKVNLGGIPESLFESELFGHKKGAFTNAFSDRKGRFELADGGTIFLDEIGELPVGNQVKLLRVLQEQTFEPLGESVSHRVDIRVVSATNASLERMVAEGRFREDLYYRINLIHLHLPPLRERQEDIQLLVEAFSEAFAQSNGLPHAVWSAEAMRRICAMPLPGNVRELKNVVERTLLLSGSREISARDVADEGHHHHHH | soluble
5 | MTTGVRRRMGVEERRQQLIGVALDLFSRRSPDEVSIDEIASAAGISRPLVYHYFPGKLSLYEAALQRASDDLADRFVEPRQGPLGARLLRVMGRYFDFVDEHGPGFSALMRGGPAVGSTTTNALVDSVRQAAYVQILSHLDVTEPPARLELVVRSWISLAESTALLWLDGRRIPRAELETQLVHDFAALMAVSAAYDEEMGALVRRVLADEPEDGPFGDLVDRLLALSAR | soluble
6 | MGSDKIHHHHHHMAAPEKTAGSKGEATQMRDAPALVGSDRQKILRAGFIPLVDASVLIAAAEFGFADREGLILDLVKDVSWANVRDRLAFRQFDIAHMLSPMPVASMLGLGSNPSPTITPFSLGRGGNAITLSTRLFARMKALTGLSETAGALENARALKLVLDDMRARGEAPPTLGMTYPFSSHNYEFRYWLAAGGIHPDHDVKLVVVPPPMTSDALAAGAIDGFCVGAPWNIVAAERGVGRIVAAKQDLWPSAPEKVIGMRPEWAESQQETVGRLLTALDAAASWCDLADNHDALSGALADPRYIGAPQSIIRRVLAGEFSIDSQGNRRVIEKYFTFHGDHANYPRQSQSLWIYSQMIRWGQAELSETGVNAALSAYRPDIYRAALGDGKAPGDADIRIEGQDEGDRFVDGFVFDPADIAGYVNSFAVRTSVPVSAPSGEA | not soluble
7 | MDELLNRLRQTWHSTIPVSEFMQIAPLSFTDGELSVSAPLAPNINLHHTMFAGSIYTIMTLTGWGMVWLQQQLLNVDGDIVLADAHIRYLAPVTSAPEVKVRWPDTNLSPLQRGRKAKVKLEVQLFCDGKLCAQFDGLYVSVPKMLEHHHHHH | soluble
8 | MQYHRIPHSSLEVSTLGLGTMTFGEQNSEADAHAQLDYAVAQGINLIDVAEMYPVPPRPETQGLTETYVGNWLAKHGSREKLIIASKVSGPSRNNDKGIRPDQALDRKNIREALHDSLKRLQTDYLDLYQVHWPQRPTNCFGKLGYSWTDSAPAVSLLDTLDALAEYQRAGKIRYIGVSNETAFGVMRYLHLADKHDLPRIVTIQNPYSLLNRSFEVGLAEVSQYEGVELLAYSCLGFGTLTGKYLNGAKPAGARNTLFSRFTRYSGEQTQKAVAAYVDIARRHGLDPAQMALAFVRRQPFVASTLLGATTMDQLKTNIESLHLELSEDVLAEIEAVHQVYTYPAP | soluble
9 | MDKSELFLTFEAKVKGKKINLPDLKIADGVISTEALASALNASAAIAPDAFQRIIKQAYDANIMFLIQQAQIRAQEINKGEVKDWKDLVANAKDAPNQDVTVEVQAYASPDGGVELNEKLSEQREKNTTTALKKQFQKSNIKDVEINAHYTAQDWEGFKQLVEKSDIQDKELVLRVLSMYPDPEQREQEIKNISTVFRQLADDILPQLRRSRLIANVEIIGKSDDEIKRLAAQNPGRLTVEELLYSATLLESPAQKE | not soluble
10 | MLEQILLGTYTRRASQGIYKIALDTTQGRLTEATLLLEETSPTYLALSQKGELFSVTSVDGEGGTAAYQPEMDHFNLLNKVTEEGAPPCYVAVDENRQLVYAANYHQGIVHVYRILEDGSLEDADKVIHTEPTGPHENQNNAHVHYTDLTPDQRLVVCDLGTDRVYTYNVSLDGKLSEIAQFVTEPGTGPRHLVFHPTKSLAYLFGELDSTVSVLSYDETDGSFTELQKVSTLPADYDAFNGGAAIRISSDGRFLYASNRGHNSIAVYAVSENGEAIERIQLISTEGDIPRDFDLDPSEDFIVVANQDSDNLTLYRRNQETGLLEMIQKDVAVPECVCVLFVLEHHHHHH | soluble
11 | MARVLVVDDAAFMRMLLKKILTQAGHEVVGEASNGKEAVEKYKQLKPDLVTMDIVMPEMDGITAVKEIMKIDPNAKIIMITAVGQEAKVMEALKSGAKGYIVKPFQAQKVIEEVNRVLSS | soluble
12 | SDDREMDDGRWKASALRVPLQVSSAVIKQEVVTRLAPDPVPLTEGAIGIFLSGTEPESGQEDSGYKVIDNRKYVYSEGHWGPPTANDTIYLVGNDADVCAYYPYKDSYTDKTVIPLQSQDYVETEDIYYALNTMINGFTPAITFDMVHAYSLVELKISRENYFMPCEISKITLKNSNLIKKGTINIAVDGSIHSSETGNYDLTTVTDASPHTLSVGESYVCRVLMIPVPLKIERTDAEGGEFGLSVSLVIDGQQMLVEIPYSELGEFRQGEKYVIGLKIKGTEIVPTVKALEWEDEEVNGGNKYPVE | soluble
13 | MCTTCGCAEGNLYIEGDEHNPHSAFRSAPFAPAARPALNITGIKTPDFAPSQTAEGDLHYGHGEAGTHAPGMSQRRMLEVEIDVLDKNNRLAERNRARFAARQQLVLNLVSSPGSGKTTLLTETLMKLKDRVPCAVIEGDQQTVNDAARIRATGTPAIQVNTGKGCHLDAQMIADAAPRLPLDDHGILFIENVGNLVCPASFDLGEKHKVAVLSVTEGEDKPLKYPHMFAAASLMLLNKVDLLPYLNFDVEKCIASAREVNPEIEIILISATSGEGMDQWLAWLEAQRCA | not soluble
14 | MSSAPPAPRVIAVVGPTAAGKSDLGVFLAQRLGGEVVNADSMQLYRGMDIGTAKLTPEERGGVPHHLLDIWDVTVTASVAEYQRLARERIDALLAEGRWPILVGGSGLYVRGAVDNLEFPGTDPGIRARLEEELELRGPGALHARLAVADPEAARAILPSNGRRIVRALEVIEITGRPFTANLPGHDSVYDTVQIGVDVARPELHERIALRVDRMWEAGLVDEVRALEAQGLREGRTASRALGYQQVLAALAGECTLDEARAETVRATKRFARRQDSWFRRDPRVHWLSGGVADRTELPRLALSLVERPVTALEHHHHHH | not soluble
15 | SLDSIELMAKIHASARWSEAALQILADETRRILKHEAGTRAGEDPEQLHQMRVGIRRLRSALRLFEPALKLPKPARRRSLSPLAAVLGSVRDLDVQMEMLRERYLGALPEGEQQALERLLAHLESLRTQARSAMLRYLDGLDYEQFKSAYTEFLESPKFRRGADESLYHLLPAFLREALSTLWAHPGWEEPDVETMHDLRIAVKRVRYNLEFFLGCYGKAVRSLHGELKRIQEELGIIHDCDVLLGQLHTEPLGPATPWQQPFSRLTALVRNERRNAVRRFRRLKTRLLSEDMRNSLAVWVSWPGTADD | soluble
16 | MNKEAFERLPQEKKKIIETAYFSAVRKEISASQFFGVCKEALSKDQFESLFSSSTAGREQQEEMKTEHLQDIIQYSGVDLKEEAEHIVRETETNINFGEYEEEDVNNHIGSLMNVPLFREFVSRIGNSRRVGISEESFFLLFQVAKRKMLDIVEKMEESSKWRVEYNLSEFIIRIKNDLSRQLWCLEQIEKAEIEKFTIRRGEEEGRKKVKKTIQEREDLVIKKRLSNTVALAALGIQQKSWMSAEDVRVSEESTAFNSIYSPFDEKALERKVVNRTITMKDFLYVLERDRRYSKSVFTIQHYFRRGSA | not soluble
17 | MSHPALTQLRALRYFDAIPALEPHLLDWLLLEDSMTKRFEQQGKRVSVTLIREAFVGQSEVEEASGLLPSESRYWLREILLCADGEPWLAGRTVVPESTLCGPEQVLQHLGKTPLGRYLFTSSTLTRDFIEIGRDATLWGRRSRLRLSGKPLLLTELFLPASPLY | not soluble
18 | MSLGEKMAIWRTKKPATKQKIVSDLQELGIKKGDTIIFHASMSKAHWICGGPVTVILALQELVGELGNIVMPAQTGQLSDPAKWENPPVPESWWKIIRRETPPFDPLVTPTRGMGVIAETFRTMPDVERSFHPYHSFCAWGKDKKQILANQPLAKSMGDESPLGKMYQLDAKIILFGVDNNNNTSLHLAEERSNAFPLIENQAAFLKNGEIIWEKYQEIDYNSEVFIALGRAYEKEHDFHPTTIIGAPTKIYDMRDLVDFGTKYFQTKNHEGHHHHHH | soluble
19 | MNLPGAAEPQGGNEIPEYTGVAWHYGQPLVEQRYFERSGGFVDRSHRGVLCISGEDAAVFLNNLVSQKLIDLPHPWAGEALDLDIQGHVVHHMEIIATDEVFYVHVPAAQLESLHTFFTRMIFWSKVTIEVIDAAVISVISAQHLDALVDVPLPEALAVSPVIDFSLPRRDILVPRASLMAVAASLQEHGFQPAGMMAYTAARVRSVQPVMSLDMDATTIPHEAASLIGRGDHIGAVHLNKGCYRGQETVGRVENLGRSPRVLVMVLIDGSAPEQPHPAAPLTAGGRTVGFLGTVVDDFELGPIGLAVVKRSALKSATLQAGDDVALSIDPDSLPHDDGEKAGRVAINKLRGL | not soluble
20 | MASESSIDEKKKKAQVTQSNINKNTPQQLTDKDLFGNETTLAVSEEDIQAALDGDEFRVPLNSPVILVQSGNRAPETIMQEEMRKYYTVSTFSGIPDRQKPLTCNKNKDKNENEDVASAENMNWMQALRFVAAKGHQKAIIVYQDMLQTGKYDSALKSTVWSDYKNDKLTDAISLRYLVRFTLVDVATGEWATWSPVNYEYKVLPPLPDKNEASTTDMTEQQIMQLKQKTYKAMVKDLVNRYQLEHHHHHH | not soluble
21 | MKKPNGTNGASSSLEPPPSTFQPLCHPLVEEVSKEVDGYFLQHWNFPNEKARKKFVAAGFSRVTCLYFPKALDDRIHFACRLLTVLFLIDDLLEYMSFEEGSAYNEKLIPISRGDVLPDRSIPVEYIIYDLWESMRAHDREMADEILEPVFLFMRAQTDRTRARPMGLGGYLEYRERDVGKELLAALMRFSMGLKLSPSELQRVREIDANCSKHLSVVNDIYSYEKELYTSKTAHSEGGILCTSVQILAQEADVTAEAAKRVLFVMCREWELRHQLLVARLSAEGLETPGLAAYVEGLEYQMSGNELWSQTTLRYSVVVD | soluble
